Assay [1] concerns the target T1, Rf1-CoV RBD-His8-SpyTag003 (Bat SARS-like coronavirus Rf1).
T1 construct: clade 2
Briefly: ELISA. Conditions: both partners purified. A general note: In an ELISA, binding on a coated surface is turned into a signal by an enzyme label.

For assay [2], the target named is pangolin17 (pang17)-CoV RBD-His8-SpyTag003 (pangolin17-CoV). Briefly: ELISA. Conditions: both partners purified.
The target in assay [3] is SHC014-CoV RBD-His8-SpyTag003 (Bat SARS-like coronavirus RsSHC014). Briefly: ELISA. Conditions: both partners purified.
Assay [4] has as its target T2, Yunnan2011 (Yun11)-CoV RBD-His8-SpyTag003 (Bat coronavirus Cp/Yunnan2011).
T2 construct: clade 2
Briefly: ELISA. Conditions: both partners purified.

Assay [5] has as its target WIV1-CoV RBD-His8-SpyTag003 (Bat SARS-like coronavirus WIV1). Briefly: ELISA. To be noted: both partners purified.
Assay [6] has as its target BM48-31-CoV RBD-His8-SpyTag003 (Bat coronavirus BM48-31). Briefly: ELISA. To be noted: both partners purified.
The target in assay [7] is Rs4081-CoV RBD-His8-SpyTag003 (Bat SARS-like coronavirus Rs4081). Briefly: ELISA. Conditions: both partners purified.
In assay [8] the target is RaTG13-CoV RBD-His8-SpyTag003 (Bat coronavirus RaTG13). As to the kind of experiment: ELISA. To be noted: both partners purified.
The target in assay [9] is RmYN02-CoV RBD-His8-SpyTag003 (Bat coronavirus RmYN02). Briefly: ELISA. To be noted: both partners purified.
The target of assay [10] is SARS-CoV-2 spike (S) protein, ELISA antigen (SARS-CoV-2, Wuhan-Hu-1 (assumed), UniProt P0DTC2). As to the kind of experiment: ELISA. Conditions: both partners purified.
Assay [11] has as its target T3, SARS-CoV-2 RBD (wild type), ELISA antigen (SARS-CoV-2, UniProt P0DTC2). As to the kind of experiment: ELISA. Conditions: both partners purified.
Assay [12] concerns the target SARS-CoV spike, ELISA antigen (SARS-CoV, strain not named (reference …, UniProt P59594)). As to the kind of experiment: ELISA. Conditions: both partners purified.
Assay [13] concerns the target SARS-CoV RBD-His8-SpyTag003 (SARS-CoV (GenBank ON131087, strain not …, UniProt P59594)). Briefly: ELISA. Conditions: both partners purified.
Assay [14] concerns the target T3, SARS-CoV-2 RBD (wild type), ELISA …. Briefly: cell-based or functional assay.

B1: IY-2A (antibody, V domains shown)
VH: QVQLVEWGAGLLKPSETLSLTCAVYGGSFSGYYWSWIRQPPGKGLEWIGLINHSGSTNYNPSLKSRVTISLDTSKNQFSLKLTSVTAADTAVYYCARGLGIFGVVTLSDVWGQGTTVTVSS
VL: NFMLTQPHSVSESPGKTVTISCTGSSGSIASNYVQWYQQRPGSAPTTVIYEDNQRPSGVPDRFSGSIDSSSNSASLTISGLRTEDEADYYCQSYDSGIWVFGGGTKLTVL
notes: source: ExpiCHO cells, transiently transfected, purified (rProtein A Sepharose); copies: 2 + 2
B1: the binding result in [1], in [2], in assay [3], in [4], in assay [5] and in assay [6] was “binds” throughout. The binding result in assay [7], in [8] and in [9] was “binds” throughout. Besides, the “OD in ELISA at 1 µg/ml” value was 1.8 OD in assay [10], 1.87 OD in assay [11] and 1.78 OD in [12].

B2: FP-12A (antibody, V domains shown)
VH: EVQLVESGGGVVQPGRSLRLSCAASGFTFSSYGMHWVRQAPGKGLEWVAVISYDGSNKYYADSVKGRFTISRDNSKNTLYLQMNSLRAEDTAVYYCANGFGEYYYYAMDVWGQGTTVTVSS
VL: NFMLTQPHSVSESPGKTVTISCTGSSGSIASNYVQWYQRRPGSAPTTVIYEDNQRPSGVPDRFSASIDSSSNSASLTISGLKTEDEADYYCQSYDSSNWVFGGGTKLTVL
notes: copies: 2 + 2
Turning to B2, the binding result in assay [1], in [2], in [3], in assay [4], in assay [5] and in assay [6] was “no binding (tested: 50 nM)” throughout. Besides, the binding result in [7], in assay [8], in [13] and in [9] was “no binding (tested: 50 nM)” throughout. The entries for the “OD in ELISA at 1 µg/ml” value in [10] and in assay [11] were 1.76 OD and 1.79 OD, respectively.

B3: IS-9A (antibody, V domains shown)
VH: QVQLVQSGAEVKKPGESLRISCKGSGYSFTNYWISWVRQMPGKGLEWMGRIDPSDSYINYSPSFQGHATISADKSISTAYLQWGSLKASDTAMYYCARGRNYLDSRGRFDYWGQGTLVTVSS
VL: DIVMTQSPSSLSASVGDRVTITCQASQDISNYLNWYQQKSGKAPKLLIYDASNLETGVPSRFSGSGSGTDFTFTISSLQPEDIATYYCQQYDSLGFTFGPGTKVEIR
notes: as for B1
In the case of B3, the binding result in [3], in assay [5] and in [8] was “binds” in each case. Moreover, the “IC50 of neutralisation of SARS-CoV-2 (potency of IS-9A)” value in assay [14] was determined as 0.03 µg/mL. Further, the figures for the “OD in ELISA at 1 µg/ml” value in [10], in assay [11] and in assay [12] were 1.78 OD, 1.88 OD and 1.83 OD, respectively.

B4: EY-6A (antibody, V domains shown)
VH: EVQLVESGGGVVQPGRSLRLSCAASAFTFSSYDMHWVRQAPGKGLEWVAVISYDGSNKYYADSVKGRFTISRDNSKNTLYLQMNSLRAEDTAVYYCAKDGGKLWVYYFDYWGQGTTVTVSS
VL: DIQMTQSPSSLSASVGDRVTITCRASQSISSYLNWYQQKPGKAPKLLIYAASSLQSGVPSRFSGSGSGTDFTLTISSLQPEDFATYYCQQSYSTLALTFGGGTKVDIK
notes: also called mAb EY-6A; source: ExpiCHO cells, transiently transfected, purified (rProtein A Sepharose); copies: 2 + 2
As for B4, the binding result in [1], in [2], in assay [3], in assay [4], in assay [5] and in assay [6] was “binds” in each case. Also, the binding result in assay [7], in [8] and in assay [9] was “binds” in each case. Besides, the figures for the “OD in ELISA at 1 µg/ml” value in assay [10], in [11] and in assay [12] were 1.75 OD, 1.81 OD and 1.67 OD, respectively.
